# Assay results from the supplement of paper PMC9170038.
# Test system: MS2 coat protein
# Experiment: apparent KD of MS2 coat protein; designed switch direction (-1 OFF switch, 1 ON switch): -1; higher = weaker reporter binding
# Summary of the method: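 Stalled E. coli RNA polymerase transcribed designed RNA switches on Illumina chips, which were then titrated with SNAP-549-labelled MS2 coat protein, doubling from 0.7 or 1.5 nM to 3 µM. Steps lasted from 0.8–1.5 h at the lowest concentration to 10–20 min at the highest. The apparent KD is each design's median over clusters of curve-fitted normalised fluorescence.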
# [1] = Eterna round: R95, input ligand: FMN 200 uM
# [2] = Eterna round: R95, input ligand: microRNA oligo, concentration not stated
# [3] = Eterna round: R95, input ligand: none
# [4] = input ligand: microRNA oligo, concentration not stated
Sequence,apparent KD of MS2 coat protein (input ligand: FMN 200 uM) [nM],apparent KD of MS2 coat protein (input ligand: none) [nM],apparent KD of MS2 coat protein [2] [nM],other results
"ACACAGCAAGGAUAUACAUGAGGAUCACCCAUGUGGUGGCAGUUACGGUAGGACUAGUGUAGAAGGUGCAGUGG [EX3 #30] (Eterna round: R97, puzzle: Exclusion 3)",487,668,,
"UUGAGACAUGAGGAUCACCCAUGUAAGGAUAUAGUCGUCUGGUGGUCUCGGGUGGUGGCUAGAAGGUGCGUGCG [-15.7, 14.3 kcal, A 20%] (Eterna round: R97, puzzle: Exclusion 1)",241,239,,
CAGUACUGAGGAUAUACAUGAGGAUCACCCAUGUGUUCCAGCUAGGAAACUAGCAAAAGUAGAAGGCAGUACUG [salish99_ex3_r3_064] (puzzle: Exclusion 3),,,19.6,apparent KD of MS2 coat protein [1]: 285 nM; apparent KD of MS2 coat protein [3]: 22.4 nM
"CCAAGCUUAUUCAUUAACCACAUGAGGAUCACCCAUGUCUAGGCAAUUAUGACUGGCCCAUCUGGUGCUCGUCUUAU [Sensor-V1 #31] (Eterna round: R97, puzzle: Sensor, turn-off variant 1)",20.9,20.8,,
"UUAGAUAGGUCAGGAUAUCGAUUAUUGUAUAGUAUGAUUUACAUGAGGAUCACCCAUGUUAAAUACGAGAAGGGACGUUAGAUU [JR_ExcNG2_Sub022] (Eterna round: R96, puzzle: Exclusion NG 2)",,,,apparent KD of MS2 coat protein [4]: 16.9 nM
"GCCGAAUAAGUGAGGAUAUACCUAUGGAUACAUAGGUAGAAGGCACAUGAGGAUCACCCAUGUACCUCAACGGC [JL-BMX4-4.16 Eli mod] (Eterna round: R97, puzzle: Brourd's mod of Exclusion 4)",34.5,14.8,,
"UUGUUAUAUGUAGGAUAUGCAUAUUAUUAUUAUGCAGAAGGACAUGAGGAUCACCCAUGUAUAUUAUUAUUAUAUGUUAUAUAU [Title] (Eterna round: R96, puzzle: Exclusion NG 1)",,,,apparent KD of MS2 coat protein [4]: 19.5 nM
AGAAGACAUGAGGAUCACCCAUGUAAGGAUAUUGGAGGUUAGGGAUGCUGGAGUUGGGCAAGAAGGUACAGGUG [JR_Exclu1_Sub092] (puzzle: Exclusion 1),,,49.8,apparent KD of MS2 coat protein [1]: 46.9 nM; apparent KD of MS2 coat protein [3]: 81 nM
"AUAAAUCAUGUAGGAUAUGCGUGGCAAAGCUAUGCAGAAGGACAUGAGGAUCACCCAUGUGCUUCCGUCUGGGAACAGACGGUA [Mat - Exclusion NG 1 - Mod of JL - D34] (Eterna round: R96, puzzle: Exclusion NG 1)",243,84.9,,apparent KD of MS2 coat protein [4]: 67.7 nM
"CAAAACCGAGGAUAUACUUCGGAGAUAAAGGUAAGUCAAAGACUUGAGGAUCACCCAAGUAGAAGGCGGACGGA [Laeded] (Eterna round: R97, puzzle: Exclusion 2)",95.5,22.4,,
UUUUACCUAGGAUAUACAUUUUUUUUAUUAUUUUCAUUAUAACAUGAGGAUCACCCAUGUAGAAGGAGGAUUUU [My Design] (puzzle: Exclusion 2),,,34.7,
"ACCUACCAGCUAGGAUAUGCAGUACAGUAAAAUGUAGAAGGAGCACGAUCCAGACAUGAGGAUCACCCAUGUGGGCGGUAGGCA [Errage] (Eterna round: R96, puzzle: Exclusion NG 1)",14.4,16.9,,apparent KD of MS2 coat protein [4]: 14 nM
"GCUGGCUGAGGAUAUCUAUCCAUGAACAUGAGGAUCACCCAUGUAAACGUGGAGUGAGAUAGAGAAGGCGGGCAGA [EX5 A.13] (Eterna round: R97, puzzle: Exclusion 5)",13.6,11.2,,
"AUACAGGAAGGAUAUACAUGAGGAUCACCCAUGUAGGAAAACCUACCAAAAGACCCAAGUAGAAGGUCCGAUAC [jl-ex3-4.74 ViennaUCT mod] (Eterna round: R97, puzzle: Exclusion 3)",21.8,19.4,,
AAUCCACAUGAGGAUCACCCAUGUCAGGAUAUCGCGCGCGCGUUUUCGGUCUUUCGCGCGAGAAGGGACGGCUG (puzzle: Exclusion 1),,,16.3,
GAAAAGGUAGGAUAUACGAAAACAAAGGGUAGAAACAAAACACAUGAGGAUCACCCAUGUAGAAGGACCAAAAG [salish99_ex2_r3_097] (puzzle: Exclusion 2),,,25.6,apparent KD of MS2 coat protein [1]: 164 nM; apparent KD of MS2 coat protein [3]: 25.4 nM
"UUUAAUUUUUUUUUUUUACAAGCUUUUUGCUCGUCUUAUACAUGAGGAUCACCCAUGUAAAUGGGAAGUAAAUUAUC [JMF 50] (puzzle: Sensor v3, turn-off variant 2)",,,207,apparent KD of MS2 coat protein [1]: 59.5 nM; apparent KD of MS2 coat protein [3]: 93.1 nM
AAACGUAGACAGGAUAUCUGCGCCCUUGGUUAAAGAGAAGGGUCUACAUGAGGAUCACCCAUGUGGUGUAACUC [Dibedididi] (puzzle: Exclusion 6),,,18.4,apparent KD of MS2 coat protein [1]: 13.8 nM; apparent KD of MS2 coat protein [3]: 23.6 nM

Sequence,apparent KD of MS2 coat protein (input ligand: FMN 200 uM) [nM],apparent KD of MS2 coat protein (input ligand: none) [nM],apparent KD of MS2 coat protein [2] [nM],other results
CCGGAAAUGAAGGAUAUAGGAGUCGAUAGACACCUAGAAGGUCAUACAUGAGGAUCACCCAUGUGUCCUACCGG [Fiskers Ex 6 - 78] (puzzle: Exclusion 6),,,14.9,
"GCACGGAGUGUAGGAUAUCUGUGCGAUUAGCUCAGAGAAGGACACAUGAGGAUCACCCAUGUGUAACUCAACAUUAAUCCGUGC [Eli exng1 - 074] (Eterna round: R96, puzzle: Exclusion NG 1)",9.63,10.6,,apparent KD of MS2 coat protein [4]: 7.59 nM
AAAGAGCAAGGAUAUACAUGAGGAUCACCCAUGUAGUACGUGAACCAGGUUUUCCUGAGUAGAAGGUGCAGACA [Dibira] (puzzle: Exclusion 3),,,28.1,
AUAGAGUCAGGAUAUACAGGUGGAGGAGAGCAGCAUAAGGAGUAGAAGGGACAUGAGGAUCACCCAUGUAAGUG [JR_Exclu4_Sub059] (puzzle: Exclusion 4),,,63.9,apparent KD of MS2 coat protein [1]: 45.9 nM; apparent KD of MS2 coat protein [3]: 56.9 nM
AUUUUAAUAUAGGAUAUCGAAAUAAUUAUUUAACGAGAAGGAUGAACAUGAGGAUCACCCAUGUGGUAUCAUGG [Mat - Exclusion 6 - JL Mod - D32] (puzzle: Exclusion 6),,,159,apparent KD of MS2 coat protein [1]: 178 nM; apparent KD of MS2 coat protein [3]: 163 nM
GAAGAGACAGGAUAUACAUGAGGAUCACCCAUGUGAGGAGGUUGGAGGCGGAGAAGGUGUAGAAGGGUCAAAGA [JR_Exclu3_Sub022] (puzzle: Exclusion 3),,,36,apparent KD of MS2 coat protein [1]: 41.5 nM; apparent KD of MS2 coat protein [3]: 51.4 nM
UUUUAACAUGAGGAUCACCCAUGUGAGGAUAUCGAAAUUUAUAUUUAUAUUUAUAAUACGAGAAGGCACAUUUU [JMF 94] (puzzle: Exclusion 1),,,82.3,
GCGUGACAUGAGGAUCACCCAUGUGAGGAUAUCUGGACACUCUUUAUUUUAGAUGUCCAGAGAAGGCACAUGCU [Ex1-3: 5Z] (puzzle: Exclusion 1),,,220,
"AGCUUUUUGUUUUUGGGUGACAUGAGGAUCACCCAUGUCUUAUGGGCCCAAUAAUAAUAAAAUAAAAGGGACCCACG [-20.8, -41.27, a 31%] (Eterna round: R97, puzzle: Sensor, turn-off variant 1)",457,208,,
"CACCUGAGAGGAUAUACGUUGAUGUUAUGCUAUGGAAAGUUACAUGAGGAUCACCCAUGUAGAAGGCUCAGGUA [Eternabot (L2) Solution 48] (Eterna round: R97, puzzle: Exclusion 2)",75.4,18.8,,
AGUAACAGAGGAUAUACUAUUUUAUGUGUUUAUUGUUUUGAACAUGAGGAUCACCCAUGUAGAAGGCUGAAUAA [JMF 95] (puzzle: Exclusion 2),,,24.5,
"CACCGUUACAGAGGAUAUCUUACAUGAGGAUCACCCAUGUAAUAAAUGAGAAUUUCGGAUGUAUGAGAGAAGGCUGGAAUCGGC [Ostricism 38 - Jieux - Exclusion NG 2] (Eterna round: R96, puzzle: Exclusion NG 2)",,,,apparent KD of MS2 coat protein [4]: 16.3 nM
"GCUUUUCUUUUCCUUUCUUACAUGAGGAUCACCCAUGUUUCUUGUCGUCCUCGCGUUGCUCGUCUGUCUGUCUGUUG [salish99_TOv1_r3_078] (puzzle: Sensor v3, turn-off variant 1)",,,135,apparent KD of MS2 coat protein [1]: 97.8 nM; apparent KD of MS2 coat protein [3]: 95.9 nM
"GGUAUACAUGAGGAUCACCCAUGUCAGGAUAUGGUAUCCUGUGCCGAAAGGCACAGGUCCAGAAGGGACGAUAG [AK-MS2ROC-r4-exclusion1-5.2] (Eterna round: R97, puzzle: Exclusion 1)",109,91.7,,
CGAAAGGUAGGAUAUACGAAGAAAAAGGGUAGAAGAAGAACACAUGAGGAUCACCCAUGUAGAAGGACCAAAGC [Mat - Exclusion 2 - Mod of my Tesla design - D16] (puzzle: Exclusion 2),,,22.1,apparent KD of MS2 coat protein [1]: 65.1 nM; apparent KD of MS2 coat protein [3]: 20.5 nM
"UCACAGUUAGGAUAUGCGAGUUUGGUGUGCAUCCUAGACAUACAUGAGGAUCACCCAUGUAGAAGGAAUAGUGG [Eternabot (L2) Solution 80] (Eterna round: R97, puzzle: Exclusion 2)",34.5,27.1,,
UUUUAGGAAGGAUAUACAUUUUUUUUAUUAUCCUCAUUAUUACAUGAGGAUCACCCAUGUAGAAGGUCCAUUUU [My Design] (puzzle: Exclusion 2),,,175,
"CGAAGUACGUAAGGAUAUACCGUGAGGACAACGGUAGAAGGUACAACAACAUGAGGAUCACCCAUGUGGACCUCUCGGCGUUGU [Eternabot solution 19] (Eterna round: R96, puzzle: Exclusion NG 1)",,,,apparent KD of MS2 coat protein [4]: 309 nM
